From patent US20250011804A1 (PIONEER HI BRED INTERNATIONAL, published 2025)

B1: Zmm28 transcription factor (other)
chain: MGRGPVQLRRIENKINRQVTFSKRRNGLLKKAHEISVLCDAEVALIVFSTKGKLYEYSSHSSMEGILERYQRYSFEERAVLNPSIEDQANWGDEYVRLKSKLDALQKSQRQLLGEQLSSLTIKELQQLEQQLDSSLKHIRSRKNQLMFDSISALQKKEKALTDQNGVLQKFMEAEKEKNKALMNAQLREQQNGASTSSPSLSPPIVPDSMPTLNIGPCQHRGAAESESEPSPAPAQANRGNLPPWMLRTVK
notes: MADS-box transcription factor; also called Zm00001d022088

Columns and labels:
[1] = biological target: B1; assay: BiFC, maize protoplasts, flow cytometry
Experimental: (§1) Potential interaction partners of ZMM28 were further tested in vivo with a bimolecular fluorescence complementation (BiFC) assay. Following transfection of maize protoplasts, fluorescence was measured indicating interaction between nGFP-Prey and cGFP-ZMM28 (Bait). As BiFC is prone to false-positive self-assembly independent of protein-protein interaction, flow cytometry was used to quantify the BiFC signal and reduce the occurrence of false positives. All signal comparisons were made to a negative control providing a baseline for self-assembly. The control was created by deleting 47 amino acids from the leucine zipper-like K-domain of ZMMADSL6, a protein interaction partner of ZMM28 identified from bioinformatics prediction and Y2H experiment. […] Of the 12 tested protein interactions, eight were confirmed via the BiFC assay with almost half the interactions confirmed positive in both BiFC and Y2H assays (Table 2a). Table 2: ZMM28 protein-protein interactions, transcription, direct targets.
(§2) Maize seedlings were germinated and grown in Fafard Super Fine Germination Mix for 6 days in a lighted growth chamber (30° C., 60% RH, 24 h light) and were transferred to a dark growth chamber (30° C., 60% RH, 0 h light) and grown for an additional 4 days to V1. Seedlings were sub-irrigated with deionized water. Maize protoplasts were isolated from these seedlings and were transiently transformed by PEG-mediated transfection as described by Yoo et al.63 with the addition of 0.6 M mannitol in the enzyme, WI, W5 and MMG solutions. Protoplasts were transfected with 10 pmol bait+10 pmol prey plasmid DNA per 3×10^4 cells. Protoplasts were incubated on a 12-well (1 mL WI) plate for 20 hours at RT before samples were analyzed.
(§3) BiFC signals were detected by flow cytometry performed using an Attune™ Flow Cytometer (Thermo Fisher Scientific, Waltham, MA, USA) with a Blue/Violet configuration (488 nm, 20 mW laser and a 405 nm, 50 mW laser).

[2] = biological target: the molecule itself; assay: BiFC, maize protoplasts, flow cytometry
Experimental: as §1, §2, §3

| BiFC positive cell count [1] | Binder | BiFC positive cell count [2] |
| --- | --- | --- |
| 2330 cells out of 10,000 | ZmSFT-LIKE (other, Tested as prey fusions; also called ZmSFT-like - Zea mays mRNA splicing factor thioredoxin-like U5 snRNP; GRMZM2G086779) MGSVLLPTLRLKSEVDAAIRDTLDKVLVLRFGRATDATCLHLDDILDKSSWDISKFAMVALVDMDSEEIQVYIDYFDITLVPATIFFFNAHHMKMDSGTPDHTKWIGSFSSKQDFIDVVEAIFRGAMKGKLIVSCPLPPERIPRFQLLFKDV |  |
| 125 cells out of 10,000 | ZmZAG2 (other, Tested as prey fusion (GAL4 AD in Y2H/HY1H, nGFP with 30x glutamine linker in BiFC); also called zag2 - Zea AGAMOUS homolog2; GRMZM2G160687) MGRGRIEIKRIENNTSRQVTFCKRRNGLLKKAYELSVLCDAEVALIVFSSRGRLYEYANNSVKATIERYKKAHTVGSSSGPPLLEHNAQQFYQQESAKLRNQIQMLQNTNRHLVGDSVGNLSLKELKQLESRLEKGISKIRARKSELLAAEISYMAKRETELQNDHMTLRTKIEEGEQQLQQVTVARSVAAAAAAATNLELNPFLEMDTKCFFTGGPFATLDMKCFLPGSLQQMLEAQQRQMLATELNLGYQLAPPGSDAADNNPHHQF |  |
| 438 cells out of 10,000 | ZmMADS7-LIKE (other, Tested as prey fusions; also called zmm7 - Zea mays MADS7; GRMZM2G097059) MGRGRVELKRIENKINRQVTFAKRRNGLLKKAYELSVLCDAEVALIVFSNRGKLYEFCSGPSITRTLERYEKNSYAGPDTAVQNKENELVQNSRNEYLKLKAKVDNLQRTQRNLLGEDLGSLGVKELDQLEKQIDSSLSHIRSTRTQHMLDQLTDLQRREQMMCEANKCLRRKLEETSNQVHGQVWEHGANLLLGYERHSSPQQAPSHVGNGLFFHPLEAAAEPTLQIGFAPEHMNNFMPAWLP |  |
|  | B1 | 1010 cells out of 10,000 |
| 2100 cells out of 10,000 | ZmMADS24 (other, Tested as prey fusions; also called zmm24 - Zea mays MADS24; GRMZM2G087095) MGRGKVVLQRIENKISRQVTFAKRRNGLLKKAYELSILCDAEVALVLFSHAGRLYQFSSSSNLLKTLERYQRYIYASADAAVPSSDQMQNNYQEYVKLKARVEVLQHSQRNLLGEDLALLSPSELDQLENQVDKTLKQIRSRKTQVLLDELCDLKRKEQMLQDANRVLKRKLGEFEAEAASPPQLAWQGEGGMLSHDPPQPEHFFQALESNPCLQPTYHTMDMNQQPVPAPGGCYPAWMS |  |
| 715 cells out of 10,000 | ZmSF2 (other, Tested as prey fusions; also called Zea mays splicing factor 2; GRMZM2G170365) MTRRNGCTIYVGNLPGDIREREVDDLFYKGRQCGLRMYGRIVEIDLKIPPRPPGFAFVEFEDARDAEDAIYGRDGYNFDGHRLRVELAHGGRGTSSFDRSSSYSSAGQRGASKRSDYRVMVTGLPSSASWQDLKDHMRRAGDVCFTDVYREAGATIGIADYTNYEDMKHAIRKLDDSEFRNAFSRTYVRVREYDARRSRSRSRGRNRSKSRSRSHSHSYSRSRSCSYSKSRSPRSRSASESKSPVKARSPSRSPPVSPRRDKSASRSPARSKSLPRSCSPAKSE |  |
| 4060 cells out of 10,000 | ZmMADSL6 (other, positive control of the BiFC assay (full length); Tested as prey fusions; also called WT ZMMADSL6; full length ZmMADSL6) MGRGRVELKRIENKINRQVTFAKRRNGLLKKAYELSVLCDAEVALIIFSNRGKLYEFSSTQSMPKTLEKYQKCSFAGPETALQNRENEQLKSSRNEYLKLKARVDNLQRTQRNLLGEDLESLGIKELEHLEKQLDSSLKHIRSTRTQHMVDQLTELQKKEQMFCEANKCLRRRLEESNQVIWQHAWEQSERHSEVQPQQLNGNNFFHPLDGAGEPTLQIGYPSEALTSSCMTTFLPPWLP |  |
